The values below come from patent CN106117358A (UNIV SUN YAT SEN, dated 2016).

For assay [1], the target named is CD3 on Jurkat cells (UniProt P07766). The assay can be described thus: flow cytometry, culture supernatant on Jurkat cells (negative control).
For assay [2] the target is unchanged. The assay can be described thus: flow cytometry, culture supernatant on Jurkat cells. On the technique in general: Flow cytometry measures light scatter and fluorescence of single cells or particles in a stream.
Another assay concerns the target T1, CD3-His蛋白(MP-5) (UniProt P07766 23-126).
T1 construct: Immunogen and panning antigen; the construct is not defined; also called CD3蛋白; not shown: His tag
The assay can be described thus: BLI (Octet RED96), off-rate screening; sdAb-SASA from expression medium captured on BSA-coated biosensor, 100 nM CD3 in solution, 1:1 Langmuir fit, 30°C. A general note: In BLI a coated tip is dipped into the sample, and binding shifts an interference pattern.

T1 sequence (P07766 23-126): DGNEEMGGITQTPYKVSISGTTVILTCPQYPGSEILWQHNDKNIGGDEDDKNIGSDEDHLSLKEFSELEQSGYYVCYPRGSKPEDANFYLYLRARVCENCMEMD

For the molecule NC-sdAb (VHH), the MFI with CD3 on Jurkat cells [1] came out at 115.

B1: A30228 (VHH)
VHH: QVKLEESGGGLVQAGDSLTLSCAASGRTFDTMGWFRQAPGKEREFVAAVRWSSGNTYYGNTVKGRFTISRDTATNTVYLEMNSLKHEDTAVYYCAARLAGRGAADHWGQGTQVTVSS
notes: Llama sdAb from a phage display library; Tested as sdAb-SASA protein in E. coli expression medium / culture supernatant (FASEBA format), not purified; 1; also called 抗CD3单域抗体; sdAb; not shown: SASA fusion partner of the pFASEBA vector (sdAb-SASA protein)
A word on the koff: it is a measure of how fast the partners let go of each other. Lower therefore signals a long-lived complex. In the assay with CD3 on Jurkat cells [2], B1 displayed an MFI of 240. This molecule had a koff with CD3-His蛋白(MP-5) of 7.61e-05 s⁻¹.

B2: A30311 (VHH)
VHH: QVKLEESGGGLVQAGGSLRLSCAASGRTFDTMGWFRQAPGKEREFVAAVRWSSGNTYYGNTVKGRFTISRDTATNTVYLQMNSLKHEDTAVYYCAARLGGRGAADHWGQGTQVTVSS
notes: Llama sdAb from a phage display library; Tested as sdAb-SASA protein in E. coli expression medium / culture supernatant (FASEBA format), not purified; 3; also called 抗CD3单域抗体; sdAb; not shown: SASA fusion partner of the pFASEBA vector (sdAb-SASA protein)
B2: the MFI with CD3 on Jurkat cells [2] is 299. For the same molecule, the koff with CD3-His蛋白(MP-5) was determined as 0.000153 s⁻¹.
